# Experimental data as given in the supplement of paper PMC10567573.
# B1: RHOBTB3 (parent)
# chain: KVVEAHKIVLCAVSHVFMLLFNVK
# Variants of: B1
# Test: protein stability index of a GFP-peptide fusion (GPS, HEK-293T) (PSI 1-6); higher = more stable
# Conditions: c terminus: a fixed tail appended
# 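Also: lentivirally expressed fusions sorted by FACS into six bins by GFP to DsRed ratio, PSI derived from sequencing read proportions per bin multiplied by bin number.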
row,Variant,protein stability index
1,KVVEAHPIVLCAVSHVFMLLFNVK,2.02
2,KVVEAHTIVLCAVSHVFMLLFNVK,2.64
3,KVVEAHVIVLCAVSHVFMLLFNVK,2.31
4,KVVEAHWIVLCAVSHVFMLLFNVK,2.34
5,KVVEAHNIVLCAVSHVFMLLFNVK,2.31
6,KVVEAHCIVLCAVSHVFMLLFNVK,1.83
7,KVVEAHGIVLCAVSHVFMLLFNVK,2.79
8,KVVEAHDIVLCAVSHVFMLLFNVK,3.98
9,KVVEAHLIVLCAVSHVFMLLFNVK,2.74
10,KVVEAHEIVLCAVSHVFMLLFNVK,2.9
11,KVVEAHKIVLCAVSHWFMLLFNVK,3.09
12,KVVEAHKIVLCAVSHIFMLLFNVK,2.65
13,KVVEAHKIVLCAVSHRFMLLFNVK,2.79
14,KVVEAHKIVLCAVSHQFMLLFNVK,3.14
15,KVVEAHKIVLCAVSHKFMLLFNVK,3.55
16,KVVEAHKIVLCAVSHAFMLLFNVK,2.97
17,KVVEAHKIVLCAVSHNFMLLFNVK,3.11
18,KVVEAHKIVLCAVSHLFMLLFNVK,2.43
19,KVVEAHKIVLCAVSHYFMLLFNVK,2.19
20,KVVEAHKIVLCAVSHSFMLLFNVK,3.16
21,KVVEAHKIVLCAVSHTFMLLFNVK,3.44
22,KVVEAHKIVLCAVSHMFMLLFNVK,2.3
23,KVVEAHKIVVCAVSHVFMLLFNVK,3.3
24,KVVEAHKIVKCAVSHVFMLLFNVK,2.13

row,Variant,protein stability index
1,KVVEAHKIVWCAVSHVFMLLFNVK,1.55
2,KVVEAHKIVECAVSHVFMLLFNVK,2.73
3,KVVEAHKIVDCAVSHVFMLLFNVK,2.5
4,KVVEAHKIVRCAVSHVFMLLFNVK,1.64
5,KVVEAHKIVYCAVSHVFMLLFNVK,3.18
6,KVVDAHKIVLCAVSHVFMLLFNVK,2.33
7,KVVLAHKIVLCAVSHVFMLLFNVK,2.08
8,KVVIAHKIVLCAVSHVFMLLFNVK,2.78
9,KVVMAHKIVLCAVSHVFMLLFNVK,2.54
10,KVVAAHKIVLCAVSHVFMLLFNVK,2.24
11,KVVEAHKIVLCAVSHVFMLEFNVK,1.65
12,KVVEAHKIVLCAVSHVFMLKFNVK,1.89
13,KVVEAHKIVLCAVSHVFMLIFNVK,1.74
14,KVVEAHKIVLCAVSHVFMLRFNVK,1.77
15,KVVEAHKIVLCAVSHVFMLGFNVK,1.26
16,KVVEAHKIVLCAVSHVFMLAFNVK,3.27
17,KVVEAHKIVLCAVSHVWMLLFNVK,2.49
18,KVVEAHKIVLCAVSHVHMLLFNVK,3.54
19,KVVEAHKIVLCAVSHVDMLLFNVK,2.52
20,KVVEAHKIVLCAVSHVIMLLFNVK,2.06
21,KVVEAHKIVLCAVSHVMMLLFNVK,2.78
22,KVVEAHKIVLCAVSHVEMLLFNVK,3.12
23,KVVEAHKIVLCAVSHVKMLLFNVK,2.76
24,KVVEAHKIVLCAVSHVRMLLFNVK,2.23

row,Variant,protein stability index
1,NVVEAHKIVLCAVSHVFMLLFNVK,2.52
2,YVVEAHKIVLCAVSHVFMLLFNVK,2.58
3,AVVEAHKIVLCAVSHVFMLLFNVK,3.06
4,PVVEAHKIVLCAVSHVFMLLFNVK,3.1
5,SVVEAHKIVLCAVSHVFMLLFNVK,2.46
6,GVVEAHKIVLCAVSHVFMLLFNVK,2.31
7,RVVEAHKIVLCAVSHVFMLLFNVK,2.68
8,EVVEAHKIVLCAVSHVFMLLFNVK,3.04
9,TVVEAHKIVLCAVSHVFMLLFNVK,2.71
10,FVVEAHKIVLCAVSHVFMLLFNVK,4.17
11,WVVEAHKIVLCAVSHVFMLLFNVK,3.19
12,HVVEAHKIVLCAVSHVFMLLFNVK,2.2
13,KVVEAHKIVLCAVSHVFMLLANVK,3.13
14,KVVEAHKIVLCAVSHVFMLLPNVK,1.98
15,KVVEAHKIVLCAVSHVFMLLRNVK,1.81
16,KVVEAHKIVLCAVSHVFMLLWNVK,2.5
17,KVVEAHKIVLCAVSHVFMLLENVK,1.88
18,KVVEAHKIVLCAVSHVFMLLVNVK,3.87
19,KVVEAHKIVLCAVSHVFMLLINVK,3.17
20,KVVEAHKIVLCAVSHVFMLLGNVK,4.01
21,KVVEAHKIVLCAVSHVFMLLDNVK,3.1
22,KVVEAHKIVLCAVSHVFMLLYNVK,2.14
23,KVVERHKIVLCAVSHVFMLLFNVK,3.59
24,KVVEKHKIVLCAVSHVFMLLFNVK,2.58

row,Variant,protein stability index
1,KVVEDHKIVLCAVSHVFMLLFNVK,3.37
2,KVVEPHKIVLCAVSHVFMLLFNVK,3.11
3,KVVEQHKIVLCAVSHVFMLLFNVK,4.3
4,KVVEEHKIVLCAVSHVFMLLFNVK,3.14
5,KVVEVHKIVLCAVSHVFMLLFNVK,2.48
6,KVVEHHKIVLCAVSHVFMLLFNVK,2.9
7,KVVEYHKIVLCAVSHVFMLLFNVK,3.88
8,KVVEMHKIVLCAVSHVFMLLFNVK,3.42
9,KVVEFHKIVLCAVSHVFMLLFNVK,2.45
10,KVVEAHKICLCAVSHVFMLLFNVK,2.32
11,KVVEAHKIRLCAVSHVFMLLFNVK,3.25
12,KVVEAHKIFLCAVSHVFMLLFNVK,2.7
13,KVVEAHKIQLCAVSHVFMLLFNVK,2.73
14,KVVEAHKISLCAVSHVFMLLFNVK,3.31
15,KVVEAHKIMLCAVSHVFMLLFNVK,2.83
16,KVVEAHKIWLCAVSHVFMLLFNVK,3.46
17,KVVEAHKIVLCAVSHVFALLFNVK,3.04
18,KVVEAHKIVLCAVSHVFDLLFNVK,1.92
19,KVVEAHKIVLCAVSHVFPLLFNVK,2.3
20,KVVEAHKIVLCAVSHVFQLLFNVK,2.43
21,KVVEAHKIVLCAVSHVFHLLFNVK,2.34
22,KVVEAHKIVLCAVSHVFFLLFNVK,3.57
